Assay results: patent publication US20080182978A1, “ANTI-NGF ANTIBODIES AND METHODS USING SAME” (RINAT NEUROSCIENCE CORP, priority 2002, published 2008)
Entries after “also recorded” stand apart in the source; their conditions may differ.

B1: E3: humanized, affinity matured anti-NGF antagonist antibody; variable regions SEQ ID NO:1 and 2; human IgG2a (A330P331 to S330S331), kappa (antibody, V domains shown)
VH: QVQLQESGPGLVKPSETLSLTCTVSGFSLIGYDLNWIRQPPGKGLEWIGIIWGDGTTDYNSAVKSRVTISKDTSKNQFSLKLSSVTAADTAVYYCARGGYWYATSYYFDYWGQGTLVTVS
VL: DIQMTQSPSSLSASVGDRVTITCRASQSISNNLNWYQQKPGKAPKLLIYYTSRFHSGVPSRFSGSGSGTDFTFTISSLQPEDIATYYCQQEHTLPYTFGQGTKLEIKRT
modifications: human IgG2a constant (A330S/P331S) and kappa constant missing

How the values were obtained:
[1] = tested on: complete Freund's adjuvant (CFA)-induced chronic arthritis; test: CFA-induced chronic arthritis in rats, vocalization test (Example 7); assay type: in vivo, rat
From the text: The analgesic effects of anti-NGF antibody, 911 (see Hongo et al., Hybridoma 19(3):215-227 (2000)) in complete Freund's adjuvant (CFA)-induced chronic arthritis in rats were investigated using the vocalization test, in comparison with indomethacine used as reference substance.
Fifty (50) male Lewis rats (LEWIS LEW/Crl Ico) (Charles River Belgium) weighing 150 g to 220 g at the beginning of the experimental phase were included in this study. […]
On day 0 (D0), arthritis was induced in rats by intradermal injection into the tail of 0.05 ml of a Mycobacterium butyricum (Difco, USA) suspension in mineral oil (10 mg/ml). On day 14 (D14), arthritic rats were included in the study according to their ability to vocalize upon gentle flexion of the hindpaw and by their arthritis index, evaluated using an inflammation score for each hind and forepaw (see Kuzuna et al., Chem. Pharm. Bull. (Tokyo) 23:1184-1191 (1975); Pearson et al., Arthritis Rheum. 2:440-459 (1959)). Animals were scored based on the following criteria: Score 0: normal aspect; Score 1: erythema; Score 2: erythema with slight edema; Score 3: strong inflammation without ankylosis; Score 4: ankylosis. […]
Four groups of 10 rats each were included in the study. […] On day 18 (D18), the nociceptive intensity was evaluated by gentle flexion of the hindpaw and the intensity of the level of vocalization was recorded for each animal. […]

human NGF = human NGF (Homo sapiens, UniProt P01138); test: Mouse E17/18 trigeminal neuron survival assay, NGF; assay type: cell-based; settings: saturating NGF (400 pM); 48 hours
Procedure: The ability of antibody E3 to specifically block NGF activity was evaluated by measurement of the capacity of the antibody to inhibit survival of mouse E17/18 trigeminal neurons in vitro in the presence of saturating concentrations of NGF, the NGF-related neurotrophin NT3, or the NGF-unrelated neurotrophic factor, macrophage stimulating protein (MSP). The survival of mouse E17/18 trigeminal neurons is a sensitive assay to evaluate the NGF-blocking activity of anti-NGF antagonist antibodies because NGF is required to support survival of these neurons at higher concentrations than the level of NGF required to support survival of E13.5 TG neurons).
The survival assay was conducted as follows: time mated pregnant Swiss Webster female mice were euthanised by CO2 inhalation. The uterine horns were removed and the embryos (at embryonic day 17 or 18) were extracted and decapitated. The trigeminal and nodose ganglia were dissected and cleaned. The ganglia were then trypsinised, mechanically dissociated and plated at a density of 100-300 cells per well in defined, serum-free medium in 4-well plates (Greiner) coated with poly-L-ornithine and laminin.
E17/18 trigeminal neurons were grown either without added neurotrophic factors (negative control) or in the presence of saturating concentrations of human NGF (400 pM and 15 pM) (positive control); NT3 (400 pM); or MSP (600 pM). […]

[2] = tested on: post-surgical resting pain (paw incision); test: Post-surgical pain model, cumulative resting pain score; assay type: in vivo, rat

Chain of human NGF (P01138 122-241): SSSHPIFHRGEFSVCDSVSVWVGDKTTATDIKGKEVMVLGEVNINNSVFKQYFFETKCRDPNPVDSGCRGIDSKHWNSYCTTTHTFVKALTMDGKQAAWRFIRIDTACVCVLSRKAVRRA

Row | Molecule | Nociceptive intensity ([1]; 10 mg/kg orally at D18, measured one hour after dosing) | % variation of nociceptive intensity vs vehicle-treated group ([1]; 10 mg/kg orally at D18, one hour after dosing) | survival of E17/18 trigeminal neurons promoted by NGF (human NGF) | resting pain (cumulative pain score) ([2]; 0.5 mg/kg i.v. two hours after surgery, assessed 24 hours after surgery) | resting pain (cumulative pain score) ([2]; 0.02 to 1 mg/kg i.p. 15 hours pre-incision, 24 hours after surgery, vs saline)
1 | COc1ccc2c(c1)c(CC(=O)O)c(C)n2C(=O)c1ccc(Cl)cc1 [Indomethacin, reference compound] | 145.8 ± 29.9 mV | −85% | – | – | –
2 | B1 | – | – | completely blocked; also recorded: totally blocked | effectively alleviated post-surgical pain; also recorded: reduced resting pain | significantly reduced resting pain
